We go through 3 molecules from patent publication US20190241662A1 (ADAGENE, published 2019).

Numbering of substitutions follows the chain as printed.

In test [1] the target is T1, human B7H3 on HEK293F cells (human, UniProt Q5ZPR3 29-534).
T1 construct: whole, on cells
T1 sequence (looked up): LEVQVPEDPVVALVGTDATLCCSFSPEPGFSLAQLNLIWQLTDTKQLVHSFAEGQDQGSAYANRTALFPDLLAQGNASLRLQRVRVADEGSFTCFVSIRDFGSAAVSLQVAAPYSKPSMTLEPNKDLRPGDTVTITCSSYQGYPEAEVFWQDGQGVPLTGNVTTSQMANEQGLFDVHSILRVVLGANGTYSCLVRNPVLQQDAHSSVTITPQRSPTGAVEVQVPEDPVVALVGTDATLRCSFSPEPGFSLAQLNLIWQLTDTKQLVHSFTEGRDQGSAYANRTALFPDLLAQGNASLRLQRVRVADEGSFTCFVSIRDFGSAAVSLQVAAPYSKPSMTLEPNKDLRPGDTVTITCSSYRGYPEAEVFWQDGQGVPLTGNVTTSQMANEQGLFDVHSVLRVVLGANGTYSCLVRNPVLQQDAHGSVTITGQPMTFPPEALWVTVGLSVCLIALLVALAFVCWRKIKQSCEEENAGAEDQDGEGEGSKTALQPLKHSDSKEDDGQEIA
Description: flow cytometry, transfected HEK293F cells [Cont.]. The procedure:
(§1) Antibody selectivity was next examined. Human CTLA4, PD1, LAG3, Tim3, B7H3, CD95, TNFR1, OX40, CD40, PD-L1, BLTA, VISTA, PDL2, ICOS and B7H4 were transiently overexpressed on the surface of HEK293F cells. Transfected cells were washed in pre-chilled 1×PBSA buffer (1.76 mM KH2PO4, 10.14 mM Na2HPO4.12H2O, 2.68 mM KCl, 136.89 mM NaCl and 1% BSA), then incubated with 100 nM test antibodies for 1 hour on ice. Cells were washed once with staining buffer, and Alexa Fluor® 647 conjugated mouse anti-human FC antibodies were added and incubated for 30 minutes on ice, protected from light. Samples were washed once with staining buffer prior to analysis by flow cytometry.
(Flow cytometry measures light scatter and fluorescence of single cells or particles in a stream.)

Test [2] concerns the target T2, human OX40 on HEK293F cells (human, UniProt P43489 29-277).
T2 construct: whole, on cells
T2 sequence (looked up): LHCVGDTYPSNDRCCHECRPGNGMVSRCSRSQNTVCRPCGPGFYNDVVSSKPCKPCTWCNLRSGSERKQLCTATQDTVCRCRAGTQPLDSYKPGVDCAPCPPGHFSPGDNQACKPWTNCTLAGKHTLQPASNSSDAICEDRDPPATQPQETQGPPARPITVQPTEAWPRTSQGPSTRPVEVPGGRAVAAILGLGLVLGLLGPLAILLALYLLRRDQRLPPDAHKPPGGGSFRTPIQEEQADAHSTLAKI
Put plainly: flow cytometry, transfected HEK293F cells, 100 nM antibody. How it is done: as §1

In test [3] the target is T3, full-length human CTLA4 expressed on cells (human, UniProt P16410 36-223).
T3 construct: whole, on cells; also called HEK293F/hCTLA-4 cells; HEK293F/hCTLA4 cells
T3 sequence (looked up): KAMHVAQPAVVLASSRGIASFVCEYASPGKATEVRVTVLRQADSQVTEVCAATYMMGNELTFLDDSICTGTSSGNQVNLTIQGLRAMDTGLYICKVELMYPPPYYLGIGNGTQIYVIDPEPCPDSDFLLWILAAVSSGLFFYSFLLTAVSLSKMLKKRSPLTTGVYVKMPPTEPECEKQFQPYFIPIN
The test is described as above. The procedure:
as §1

For test [4], the target named is T4, human CD95 on HEK293F cells (human, UniProt P25445 26-335).
T4 construct: whole, on cells
T4 sequence (looked up): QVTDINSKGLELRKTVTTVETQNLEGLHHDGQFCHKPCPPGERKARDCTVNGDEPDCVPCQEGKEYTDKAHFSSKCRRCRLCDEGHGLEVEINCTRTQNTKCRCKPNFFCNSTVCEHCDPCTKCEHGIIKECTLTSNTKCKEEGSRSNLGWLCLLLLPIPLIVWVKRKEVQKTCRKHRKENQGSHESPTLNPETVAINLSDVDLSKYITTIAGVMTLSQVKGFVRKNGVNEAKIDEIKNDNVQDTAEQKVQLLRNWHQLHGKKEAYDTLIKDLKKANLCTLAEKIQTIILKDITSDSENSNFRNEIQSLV
The description is as above. The procedure: as §1

Test [5] concerns the target T5, human LAG3 on HEK293F cells (human, UniProt P18627 23-525).
T5 construct: whole, on cells
T5 sequence (looked up): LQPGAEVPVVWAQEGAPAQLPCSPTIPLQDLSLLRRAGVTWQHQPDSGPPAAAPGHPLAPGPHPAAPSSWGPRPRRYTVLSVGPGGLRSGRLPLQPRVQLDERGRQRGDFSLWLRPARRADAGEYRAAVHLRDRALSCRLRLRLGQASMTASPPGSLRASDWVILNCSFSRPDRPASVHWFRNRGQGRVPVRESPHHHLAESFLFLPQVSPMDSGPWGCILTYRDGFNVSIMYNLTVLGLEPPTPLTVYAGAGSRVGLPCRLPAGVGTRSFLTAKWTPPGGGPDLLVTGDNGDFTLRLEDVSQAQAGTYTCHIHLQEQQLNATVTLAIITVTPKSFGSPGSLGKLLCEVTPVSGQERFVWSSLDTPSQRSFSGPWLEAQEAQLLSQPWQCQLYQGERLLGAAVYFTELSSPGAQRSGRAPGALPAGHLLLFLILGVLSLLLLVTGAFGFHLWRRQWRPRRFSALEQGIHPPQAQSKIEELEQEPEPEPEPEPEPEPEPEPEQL
The description is as above. The procedure:
as §1

Test [6] deals with T6, human PD1 on HEK293F cells (human, UniProt Q15116 25-288).
T6 construct: whole, on cells
The description is as above. How it is done: as §1

The target in test [7] is T7, human CD40 on HEK293F cells (human, UniProt P25942 21-277).
T7 construct: whole, on cells
Description: flow cytometry, transfected HEK293F cells [Cont.]. The procedure: as §1

T7 sequence (P25942 21-277): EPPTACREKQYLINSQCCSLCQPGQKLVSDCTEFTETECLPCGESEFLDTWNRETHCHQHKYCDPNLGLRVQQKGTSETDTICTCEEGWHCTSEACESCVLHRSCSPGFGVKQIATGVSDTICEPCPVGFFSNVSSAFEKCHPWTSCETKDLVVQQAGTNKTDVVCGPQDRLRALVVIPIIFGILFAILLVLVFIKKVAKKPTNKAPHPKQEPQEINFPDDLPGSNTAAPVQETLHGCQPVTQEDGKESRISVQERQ
T6 sequence (Q15116 25-288): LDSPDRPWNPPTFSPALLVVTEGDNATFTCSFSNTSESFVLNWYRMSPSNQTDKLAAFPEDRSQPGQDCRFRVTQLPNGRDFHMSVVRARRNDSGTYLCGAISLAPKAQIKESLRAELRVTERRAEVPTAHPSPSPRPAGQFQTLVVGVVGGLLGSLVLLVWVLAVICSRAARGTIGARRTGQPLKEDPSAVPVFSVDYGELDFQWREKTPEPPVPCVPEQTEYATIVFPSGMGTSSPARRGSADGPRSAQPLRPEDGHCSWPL

B1: TY21687 (antibody, V domains shown)
VH: EVQLVESGGGLVQPGGSLRLSCAASGFTFSGYAIHWVRQAPGKGLEWIGIISPSGGGTKYAQKFQGRVTISRDNSKNTLYLQLNSLRAEDTAVYYCARHPFAYWGQGTLVTVSS
VL: DIQLTQSPSSLSASVGDRVTITCRASQSVDFYGISFLDWYQQKPGKAPKLLIYDASNRATGIPSRFSGSGSGTDFTLTISSLQPEDFATYYCQQYVSSPPEYTFGQGTKVEIK
notes: human IgG1 (hIgG1) from Fab hit B15700
With B1, the binding result in test [1] is “no binding (tested: 100 nM)”.

B2: TY21585 (antibody, V domains shown)
VH: EVQLVESGGGLVQPGGSLRLSCAASGFTFSDYAIHWVRQAPGKGLEWIGIISPSSGSTNYAQKFQGRVTISRDNSKNTLYLQLNSLRAEDTAVYYCARDIHSGSSGYYYGFDVWGQGTLVTVSS
VL: B1 VL with Q27E, Y32F, D38A, Q94H, V96T, E101V
notes: human IgG1 (hIgG1) from Fab hit B15709
Consider B2, for which the “% of cells in upper right quadrant (Q2)” value in test [2] stood at 0.43; in test [3], 30.4%; in test [4] it was 0.23; in test [5] it was 0.66%; in test [6], 1.33%. Besides, the entries for the “Mean” value in test [2] and in test [4] were 10500 and 6720, respectively. In addition, the binding result in test [7] and in test [1] was “no binding (tested: 100 nM)” throughout.

B3: TY21591 (antibody, V domains shown)
VH: EVQLVESGGGLVQPGGSLRLSCAASGFSLSTGGVAVSWIRQAPGKGLEWIGEIYHSGSTYYSPSLKSRVTISRDNSKNTLYLQLNSLRAEDTAVYYCARRIATATYFDYWGQGTLVTVSS
VL: DIQLTQSPSSLSASVGDRVTITCRASQTVFSRYLAWYQQKPGKAPKLLIYDASNRATGIPSRFSGSGSGTDFTLTISSLQPEDFATYYCQQSYYWPPWTFGQGTKVEIK
notes: human IgG1 (hIgG1) from Fab hit B15756
B3: the binding result in test [7] is “no binding (tested: 100 nM)”.
